The values that follow come from PMC4536312 (Genes & Development, 2015).

Where a chain is given by its changes, count along the chain named.

Broadly, the Kd is the constant that tells how readily two partners part at equilibrium. Read a high Kd as a looser complex.

The target of data set [1] is T1, U2AF23 WT;U2AF59 fragment (Schizosaccharomyces …, UniProt Q09176;P36629 1-216;93-161, |).
T1 sequence 1: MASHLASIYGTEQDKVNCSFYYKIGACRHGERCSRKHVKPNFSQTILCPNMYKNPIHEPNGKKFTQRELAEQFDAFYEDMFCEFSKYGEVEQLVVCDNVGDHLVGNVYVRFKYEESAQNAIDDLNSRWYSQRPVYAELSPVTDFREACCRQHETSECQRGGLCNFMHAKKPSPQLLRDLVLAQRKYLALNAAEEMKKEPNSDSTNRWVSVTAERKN
T1 sequence 2: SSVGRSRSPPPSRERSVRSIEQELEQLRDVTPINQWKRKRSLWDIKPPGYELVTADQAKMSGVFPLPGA
Put plainly: ITC. A general note: In ITC the heat of successive injections is recorded.

The target of data set [2] is T2, U2AF23, the small subunit of fission yeast Schizosaccharomyces pombe U2AF (Schizosaccharomyces pombe, UniProt Q09176 1-216).
T2 sequence: T1 sequence 1
Put plainly: crystal structure.

In data set [3] the target is T3, U2AF23 R150S;U2AF59 fragment (Schizosaccharomyces …, UniProt Q09176;P36629 1-216;93-161, R150S|).
T3 sequence 1: T1 sequence 1 with R150S
T3 sequence 2: T1 sequence 2
Put plainly: ITC.

For data set [4], the target named is T4, U2AF23 Q151R;U2AF59 fragment (Schizosaccharomyces …, UniProt Q09176;P36629 1-216;93-161, Q151R|).
T4 sequence 1: T1 sequence 1 with Q151R
T4 sequence 2: T1 sequence 2
Put plainly: ITC.

Data set [5] concerns the target T5, U2AF23 F20A;U2AF59 fragment (Schizosaccharomyces …, UniProt Q09176;P36629 1-216;93-161, F20A|).
T5 sequence 1: T1 sequence 1 with F20A
T5 sequence 2: T1 sequence 2
Put plainly: ITC.

The target of data set [6] is T6, U2AF23 R159S;U2AF59 fragment (Schizosaccharomyces …, UniProt Q09176;P36629 1-216;93-161, R159S|).
T6 sequence 1: T1 sequence 1 with R159S
T6 sequence 2: T1 sequence 2
Put plainly: ITC.

Data set [7] addresses T7, U2AF23 R28S;U2AF59 fragment (Schizosaccharomyces …, UniProt Q09176;P36629 1-216;93-161, R28S|).
T7 sequence 1: T1 sequence 1 with R28S
T7 sequence 2: T1 sequence 2
Put plainly: ITC.

For data set [8], the target named is T8, U2AF23 F165A;U2AF59 fragment (Schizosaccharomyces …, UniProt Q09176;P36629 1-216;93-161, F165A|).
T8 sequence 1: T1 sequence 1 with F165A
T8 sequence 2: T1 sequence 2
Put plainly: ITC.

In data set [9] the target is T9, U2AF23 R35S;U2AF59 fragment (Schizosaccharomyces …, UniProt Q09176;P36629 1-216;93-161, R35S|).
T9 sequence 1: T1 sequence 1 with R35S
T9 sequence 2: T1 sequence 2
Put plainly: ITC.

CUCGG (ssRNA) gave a dissociation constant Kd in [1] of 296 µM.

B1: U2AF59 fragment spanning residues 93–161 (S. pombe U2AF large subunit) (domain or fragment)
chain: T1 sequence 2
As for B1, the binding result in data set [2] is on record as “binds”.
Turning to CUAGG (ssRNA), the binding result in data set [3], in data set [5], in data set [6], in [8] and in data set [9] was “no binding” each time. Also, the dissociation constant (Kd) was 0.75 µM in data set [4], 1.2 µM in data set [1] and 12 µM in data set [7].
CUUGG (ssRNA) returned a dissociation constant (Kd) in data set [1] of 429 µM.
For CUAUG (ssRNA), the equilibrium dissociation constant (Kd) in data set [4] turned out to be 53 µM. Further, the binding result in data set [1] is “no binding”.
As for CUACG (ssRNA), the binding result in [1] is recorded as “no binding”.
Turning to UUUUUUUUUU (ssRNA) [U10], the binding result in data set [1] is “no binding”.
Regarding CUGGG (ssRNA), the affinity in data set [1], expressed as Kd, was 63 µM.
